Positions count from the first letter of the chain named. In names and notes the source's numbering stands. Where two headings read alike, the source gives them in different places.
Legend:
human CCR8 [1] = biological target: T1, human CCR8 (human, UniProt P51685 1-355); test: FACS, CHO-K1-hCCR8 cells, Fab
T1 construct: whole, on cells; construct used for the overexpressing cell lines is not described; also called hCCR8
Description: (§1) Cells overexpressing human CCR8 were digested with pancreatin, counted and resuspended to a cell density of 1E6 cells/mL. The cell suspension was added to a 96-well V-bottom plate at 100 μL/well and centrifuged at 300 g for 5 min, and the supernatant was discarded. The anti-CCR8 antibodies provided herein was used as a primary antibody and diluted in a 5-fold gradient with an FACS buffer (DPBS containing 2% FBS) from 200 nM. The diluted primary antibody was added at 100 μL/well to resuspend the cells, and the mixture was incubated at 4° C. for 1 h. The plate was washed twice with DPBS and centrifuged at 300×g for 5 min, and the supernatant was discarded. The secondary antibody diluted in a 1:1000 ratio with an FACS buffer was added at 100 μL/well to suspend the cells, and the mixture was incubated at 4° C. for 40 min. The plate was washed twice with DPBS and centrifuged at 300×g for 5 min, and the supernatant was discarded. DPBS was added at 200 μL/well to suspend the cells, and the mixture was loaded on an FACS machine for analysis.

human CCR8 [2] = biological target: T1, human CCR8; test: FACS, CHO-K1-hCCR8 cells
Description: as §1

human CCR8 [3] = biological target: T1, human CCR8; test: FACS, HEK293-hCCR8 cells
Description: as §1

human CCR8 [4] = biological target: T1, human CCR8; test: FACS, Baf3-hCCR8 cells
Description: as §1

human CCR8 [5] = biological target: T1, human CCR8; test: FACS competition on HEK293-hCCR8 cells against a biotin-labelled anti-CCR8 antibody at its EC80; the labelled antibody of this panel is not named on the sheet
Description: (§2) The antibody was conjugated with Sulfo-NHS-LC-Biotin at a molar ratio of 5:1 (1 mol antibody was added to 5 mol Sulfo-NHS-LC-Biotin) with reference to the product instructions (ThermoFisher, Cat No. A39257) and incubated on ice for 2 h. The coupled antibody was purified with a Zeba desalting column (ThermoFisher, Cat No. 89882). Cells overexpressing human CCR8, HEK293-hCCR8, were added to a V-bottom 96-well plate at a density of 1E5 cells/well and centrifuged at 300 g for 5 min, and the supernatant was discarded. The competitive antibody was serially diluted in a ratio of 1:10 from 200 nM to obtain 8 concentration points. The Biotin-antibody and the competition antibody were mixed in a 1:1 ratio on an HEK293 cell line overexpressing human CCR8 by the binding EC₈₀ concentration. The cells in the 96-well plate were resuspended and incubated at 4° C. for 1 h. The plate was washed twice with DPBS at 200 μL/well. The secondary antibody diluted in a 1:1000 ratio was added at 100 μL/well, and the mixture was incubated at 4° C. for 40 min. The plate was washed twice with DPBS at 200 μL/well. Finally, DPBS was […] at 200 μL/well to suspend the cells, and the mixture was loaded on an FACS machine for analysis.

cynomolgus monkey CCR8 [6] = biological target: T2, cynomolgus monkey CCR8 (cynomolgus monkey, UniProt G7NYJ2 1-355); test: FACS, CHO-K1-CynoCCR8 cells
T2 construct: whole, on cells; also called CynoCCR8
T2 sequence (G7NYJ2 entry or part of it): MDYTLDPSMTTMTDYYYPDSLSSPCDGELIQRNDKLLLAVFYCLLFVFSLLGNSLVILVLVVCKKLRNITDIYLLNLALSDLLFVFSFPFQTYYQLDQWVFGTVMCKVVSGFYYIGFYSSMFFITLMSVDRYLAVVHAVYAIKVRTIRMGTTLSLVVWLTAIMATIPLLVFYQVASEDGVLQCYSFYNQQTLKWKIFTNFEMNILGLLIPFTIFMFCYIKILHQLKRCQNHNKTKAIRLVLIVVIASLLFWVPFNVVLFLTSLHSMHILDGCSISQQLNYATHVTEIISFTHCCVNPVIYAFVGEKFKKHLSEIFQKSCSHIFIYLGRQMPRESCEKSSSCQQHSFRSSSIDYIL
Description: as §1, with “cynomolgus monkey CCR8, CHO-K1-CynoCCR8,” for “human CCR8”

human CCR8 [7] = biological target: T1, human CCR8; test: FACS competition on HEK293-hCCR8 cells against a biotin-labelled anti-CCR8 antibody at its EC80; the labelled antibody of this panel is not named on the sheet; remark: listed apart in the source
Description: as §2

cynomolgus monkey CCR8 [8] = biological target: T2, cynomolgus monkey CCR8; test: FACS, CHO-K1-CynoCCR8 cells; remark: listed apart in the source
Procedure, shortened: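 Anti-CCR8 antibodies titrated in 5-fold steps from 200 nM onto 1E6 cells/mL CHO-K1-CynoCCR8 in DPBS/2% FBS, 1 h at 4 °C. Bound antibody detected with 1:1000 secondary antibody, 40 min at 4 °C, then flow cytometry.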

human CCR8 [9] = biological target: T1, human CCR8; test: FACS, HEK293-hCCR8 cells; remark: listed apart in the source
Description: as §1

human CCR8 [10] = biological target: T1, human CCR8; test: FACS competition on HEK293-hCCR8 cells against a biotin-labelled anti-CCR8 antibody at its EC80; the labelled antibody of this panel is not named on the sheet; remark: listed apart in the source
Description: as §2

human CCR8 [11] = biological target: T1, human CCR8; test: FACS, CHO-K1-hCCR8 cells; remark: listed apart in the source
Procedure, shortened: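 Cells are harvested with pancreatin and brought to 1E6 cells/mL. They then receive anti-CCR8 antibody (5-fold series, top 200 nM, 1 h, 4 °C), washes, secondary antibody (1:1000, 40 min, 4 °C) and FACS analysis.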

human CCR8 [12] = biological target: T1, human CCR8; test: cell-based or functional assay
cynomolgus monkey CCR8 [13] = biological target: T2, cynomolgus monkey CCR8; test: FACS, CHO-K1-CynoCCR8 cells; remark: listed apart in the source
Description: as §1, with “cynomolgus monkey CCR8, CHO-K1-CynoCCR8,” for “human CCR8”

human CCR8 [14] = biological target: T1, human CCR8; test: FACS, CHO-K1-hCCR8 cells; remark: listed apart in the source
Description: as §1

human CCR8 [15] = biological target: T1, human CCR8; test: FACS, CHO-K1-hCCR8 cells; remark: listed apart in the source
Description: as §1

human CCR8 [16] = biological target: T1, human CCR8; test: FACS competition on HEK293-hCCR8 cells against a biotin-labelled anti-CCR8 antibody at its EC80; the labelled antibody of this panel is not named on the sheet; remark: listed apart in the source
Description: as §2

human CCR8 [17] = biological target: T1, human CCR8; test: as above; remark: listed apart in the source
Description: as §2

cynomolgus monkey CCR8 [18] = biological target: T2, cynomolgus monkey CCR8; test: FACS, CHO-K1-CynoCCR8 cells; remark: listed apart in the source
Description: as §1, with “cynomolgus monkey CCR8, CHO-K1-CynoCCR8,” for “human CCR8”

T1 sequence (P51685 whole entry): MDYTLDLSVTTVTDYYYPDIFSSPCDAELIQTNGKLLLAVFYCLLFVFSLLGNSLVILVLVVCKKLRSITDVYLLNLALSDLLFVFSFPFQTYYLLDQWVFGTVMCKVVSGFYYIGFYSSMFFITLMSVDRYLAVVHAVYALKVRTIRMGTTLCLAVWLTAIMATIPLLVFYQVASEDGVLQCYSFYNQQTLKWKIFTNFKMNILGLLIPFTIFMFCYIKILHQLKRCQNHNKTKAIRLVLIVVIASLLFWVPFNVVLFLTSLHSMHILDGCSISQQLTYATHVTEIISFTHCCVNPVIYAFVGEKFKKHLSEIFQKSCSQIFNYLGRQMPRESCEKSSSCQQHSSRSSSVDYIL

B1: PR005750 (Fab, V domains shown)
VH: EVQLVESGGGLVKPGGSLRLSCAASGFTFSTYAMNWVRQAPGKGLEWVGRIRSKSNNYATYYADSVKDRFTISRDDSKSTLYLQMNSLKTEDTAVYYCVRGKENANYYAMDFWGQGTTVTVSS
VL: DIVMTQSPLSLPVTLGQPASISCRSSKSLLHSNAKIYLYWFQQRPGQSPRLLIYRMSNLASGVPDRFSGSGSGTDFTLKISRVEAEDVGVYYCMQHLEYPLTFGQGTKLEIKR
notes: Fab form of the same variable region as PR004666
Human CCR8 [1]
  EC50: 1.56 nM

B2: PR005753 (Fab, V domains shown)
VH: B1 VH with N104I, A105G
VL: B1 VL
Human CCR8 [1]
  EC50: 1.19 nM

B3: PR005751 (Fab, V domains shown)
VH: B1 VH with N104H, A105G
VL: B1 VL
Human CCR8 [1]
  EC50: 1.1 nM

B4: PR005763 (Fab, V domains shown)
VH: B1 VH with N57Y, N104H, A105G, N106K
VL: B1 VL
Human CCR8 [1]
  EC50: 0.62 nM

B5: PR005754 (Fab, V domains shown)
VH: B1 VH with N57Y, N104I, A105G
VL: B1 VL
Human CCR8 [1]
  EC50: 0.84 nM

B6: PR005752 (Fab, V domains shown)
VH: B1 VH with N57Y, N104H, A105G
VL: B1 VL
Human CCR8 [1]
  EC50: 0.69 nM

B7: PR005787 (Fab, V domains shown)
VH: B1 VH with N57Y, N104I, A105G, N106K
VL: B1 VL
Human CCR8 [1]
  EC50: 0.74 nM

B8: PR004128 (antibody, human IgG1, kappa)
heavy: not shown
light: DIVMTQAAPSVPVTPGESVSISCRSSKSLLHSNGKIYLYWFLQRPGQSPQLLIYRMSNLASGVPDRFSGSGSGTAFTLRISRVEAEDVGVYYCMQHLEYPLTFGAGTKLEIKRTVAAPSVFIFPPSDEQLKSGTASVVCLLNNFYPREAKVQWKVDNALQSGNSQESVTEQDSKDSTYSLSSTLTLSKADYEKHKVYACEVTHQGLSSPVTKSFNRGEC
notes: chimeric, human IgG1 constant region; also called RP004128; PRO4128
Human CCR8 [2]
  EC50: 0.91 nM
Human CCR8 [3]
  EC50: 4.53 nM
Human CCR8 [4]
  EC50: 0.14 nM
Human CCR8 [5]
  IC50 (read off the curve): ~2 nM
Cynomolgus monkey CCR8 [6]
  EC50: 2.26 nM
Human CCR8 [7]
  IC50 (read off the curve): ~2 nM
Cynomolgus monkey CCR8 [8]
  EC50: 0.83 nM
Human CCR8 [9]
  EC50: 0.87 nM
Human CCR8 [10]
  IC50 (read off the curve): ~2 nM
Human CCR8 [11]
  EC50: 0.42 nM
Human CCR8 [12]
  Bottom %, blocking of CCL1-stimulated calcium flux: 7%
  IC50(nM), blocking of CCL1-stimulated calcium flux: 1.51 nM
Cynomolgus monkey CCR8 [13]
  EC50: 4.73 nM
Human CCR8 [14]
  EC50: 0.55 nM
Human CCR8 [15]
  EC50: 2.54 nM
Human CCR8 [16]
  IC50 (read off the curve): ~3 nM
Human CCR8 [17]
  IC50 (read off the curve): 1 to 2 nM
Cynomolgus monkey CCR8 [18]
  EC50: 7.39 nM

B9: PR004121 (antibody, human IgG1, kappa, V domains shown)
VH: EVQLVESGGGLVQPKGSLKLSCAASGFTFNTYAMNWVRQAPGKGLEWVARIRSKSNNYATYYADSVKDRFTISRDDSQNMLYLQMNNLKTEDTAMYYCVRGKENGNYYAMDFWGQGTSVTVSS
VL: DIVITQAAPSVPVTPGESVSISCRSSKSLLHSNGNTYLYWFLQRPGQSPQLLIYRMSNLASGVPDRFSGSGSGTAFTLRISRVEAEDVGVYYCMQHLEYPFTFGGGTKLEMKR
notes: chimeric, human IgG1 constant region
Human CCR8 [3]
  EC50: 0.9 nM
Human CCR8 [4]
  EC50: 0.22 nM
Human CCR8 [5]
  IC50 (read off the curve): ~2 nM
Human CCR8 [7]
  IC50 (read off the curve): ~2 nM
Human CCR8 [9]
  EC50: 0.63 nM
Human CCR8 [10]
  IC50 (read off the curve): ~2 nM
Human CCR8 [11]
  EC50: 0.41 nM
Human CCR8 [12]
  Bottom %, blocking of CCL1-stimulated calcium flux: 0%
  IC50(nM), blocking of CCL1-stimulated calcium flux: 1.44 nM
Human CCR8 [16]
  IC50 (read off the curve): ~3 nM
Human CCR8 [17]
  IC50 (read off the curve): 1 to 2 nM

B10: PR004252 (antibody, human IgG1, kappa)
heavy: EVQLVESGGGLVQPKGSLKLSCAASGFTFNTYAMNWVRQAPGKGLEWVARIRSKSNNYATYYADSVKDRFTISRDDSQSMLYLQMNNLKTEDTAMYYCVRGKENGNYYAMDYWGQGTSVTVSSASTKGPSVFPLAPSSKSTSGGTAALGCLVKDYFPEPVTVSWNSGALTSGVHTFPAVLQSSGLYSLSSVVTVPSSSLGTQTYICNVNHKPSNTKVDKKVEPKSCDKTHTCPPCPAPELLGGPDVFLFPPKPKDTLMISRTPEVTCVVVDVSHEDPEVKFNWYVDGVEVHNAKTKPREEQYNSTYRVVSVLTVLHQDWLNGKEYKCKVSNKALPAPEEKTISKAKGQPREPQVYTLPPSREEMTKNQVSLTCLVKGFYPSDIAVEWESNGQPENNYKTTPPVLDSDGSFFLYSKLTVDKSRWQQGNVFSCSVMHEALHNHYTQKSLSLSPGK
light: B8 light with S26N, K35N, I36T
notes: PR004131 with S239D and I332E (DE) in the IgG1 constant region
Human CCR8 [3]
  EC50: 0.98 nM
Cynomolgus monkey CCR8 [18]
  EC50: 3.32 nM

B11: PR004131 (antibody, human IgG1, kappa)
heavy: not shown
light: B8 light with S26N, K35N, I36T
notes: as for B9
Human CCR8 [3]
  EC50: 1.94 nM
Human CCR8 [4]
  EC50: 0.2 nM
Human CCR8 [5]
  IC50 (read off the curve): ~2 nM
Human CCR8 [7]
  IC50 (read off the curve): ~2 nM
Cynomolgus monkey CCR8 [8]
  EC50: 1.6 nM
Human CCR8 [9]
  EC50: 0.79 nM
Human CCR8 [10]
  IC50 (read off the curve): ~2 nM
Human CCR8 [11]
  EC50: 0.52 nM
Human CCR8 [12]
  Bottom %, blocking of CCL1-stimulated calcium flux: 0%
  IC50(nM), blocking of CCL1-stimulated calcium flux: 1.67 nM
Human CCR8 [16]
  IC50 (read off the curve): ~3 nM
Human CCR8 [17]
  IC50 (read off the curve): 1 to 2 nM
Cynomolgus monkey CCR8 [18]
  EC50: 8.65 nM

B12: PR004249 (antibody, human IgG1, kappa)
heavy: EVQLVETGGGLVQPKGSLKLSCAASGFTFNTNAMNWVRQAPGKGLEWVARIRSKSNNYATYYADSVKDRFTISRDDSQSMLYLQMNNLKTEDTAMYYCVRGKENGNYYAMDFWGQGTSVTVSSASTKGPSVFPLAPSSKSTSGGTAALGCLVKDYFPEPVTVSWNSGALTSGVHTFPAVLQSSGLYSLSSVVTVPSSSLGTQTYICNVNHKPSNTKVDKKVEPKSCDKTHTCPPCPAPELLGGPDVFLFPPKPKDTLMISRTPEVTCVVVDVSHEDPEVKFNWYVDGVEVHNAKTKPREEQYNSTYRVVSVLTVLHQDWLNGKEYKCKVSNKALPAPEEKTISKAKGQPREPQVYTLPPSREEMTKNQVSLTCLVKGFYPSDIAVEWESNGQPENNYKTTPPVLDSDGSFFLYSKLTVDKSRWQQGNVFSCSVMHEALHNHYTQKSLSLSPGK
light: B8 light with K35N, I36T, I111L
notes: PR004122 with S239D and I332E (DE) in the IgG1 constant region
Human CCR8 [3]
  EC50: 1.22 nM
Cynomolgus monkey CCR8 [18]
  EC50: 3.42 nM

B13: PR004251 (antibody, human IgG1, kappa)
heavy: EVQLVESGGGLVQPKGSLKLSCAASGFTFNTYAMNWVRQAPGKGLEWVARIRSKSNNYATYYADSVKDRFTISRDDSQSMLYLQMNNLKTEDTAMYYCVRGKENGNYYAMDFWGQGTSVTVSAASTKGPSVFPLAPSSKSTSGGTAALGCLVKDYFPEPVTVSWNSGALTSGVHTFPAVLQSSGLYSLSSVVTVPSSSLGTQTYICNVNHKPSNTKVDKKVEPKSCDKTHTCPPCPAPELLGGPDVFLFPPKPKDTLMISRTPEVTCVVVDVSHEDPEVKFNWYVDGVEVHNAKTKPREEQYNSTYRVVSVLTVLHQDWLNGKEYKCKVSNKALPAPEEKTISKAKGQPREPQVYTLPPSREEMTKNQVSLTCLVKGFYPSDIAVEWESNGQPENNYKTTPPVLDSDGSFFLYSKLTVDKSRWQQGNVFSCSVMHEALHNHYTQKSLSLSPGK
light: B8 light
notes: PR004128 with S239D and I332E (DE) in the IgG1 constant region
Human CCR8 [3]
  EC50: 3.69 nM
Cynomolgus monkey CCR8 [18]
  EC50: 8.26 nM

— patent publication US20240132603A1 (HARBOUR BIOMED US, published 2024)
